*1 amine or outer side, *2 acyl side, *3 side chain or, on linkers, in order; H or OH if unused. Where a SMILES comes first, the peptide text is derived from it. Bridges are numbered along the chain shown (N, C = ends). Side-chain parts run from the residue outwards. [ ]: non-standard residue; d: D form. The star is where a group is joined. X1 = CC(C)(C)C(=O)CN1C(=O)[C@H](N*)CN(C2CCCCC2)c2ccccc21; DOTA = O=C(O)CN1CCN(CC(=O)O)CCN(CC(=O)*)CCN(CC(=O)O)CC1; 3Abz = Nc1cccc(C(=O)O)c1; CO = O=C([*:1])[*:2]
Test: in vivo
Conditions: BALB/c nude, mouse, in vivo, iv, total radioactivity
Description: To a 0.5 M NaOAc buffer (20-50 μL, pH=4.5) was added 4 μL of exemplary or comparator compound in DMSO stock solution (2000 μM) and 2 mCi ^177Lu (ITM Isotope Technologies Munich), the resulting mixture was heated to 95° C. for 15 min. The resulting product was analyzed by radio-TLC and radio-HPLC (column: Shim-pack GIST 5 μm 4.6*150 mm; buffer A: 0.2% formic acid H2O; buffer B: 0.1% formic acid acetonitrile; flow rate: 1 mL/min; gradient: 0-5 min: 10% B to 95% B; then 5-8 min: 95% B). The labelled products were used immediately or diluted by a PBS buffer containing freshly added 3 mg/mL ascorbate.
All animal care and experimental procedure were performed by following the animal protocols approved by the ethics committee of China Institute of Radiation Protection. The BALB/c nude mice (Charles River, Beijing) were utilized for these studies. Mice were below 5 per cage in sterile, microisolator cages under temperature- and humidity-controlled conditions with a 12 h light/12 h dark schedule and fed irradiated rodent chow and reverse osmosis (RO) sterile water ad libitum. In preparation for tumor cell inoculations, mice were anesthetized with isoflurane (RWD Life Science Inc.) at an induction rate of 4% and maintained at a rate of 2.5% with 0.4 L oxygen delivered via precision vaporizer and a non-rebreathing apparatus. These mice received subcutaneous rear flank injections of approximately 4×10^6 AR42J cells ([…] pancreatic cancer cell line) suspended in 200 μL of phosphate-buffered saline (PBS) and Matrigel (Corning) (1/1). Xenografted tumors were allowed to grow for ~2-4 weeks post-inoculation and ranged in mass from 0.05 to 0.50 g (average tumor size, 0.20 g). […] The mice were euthanized, and the tissues and organs were excised from the animals at 4, 24 and 72 h post-injection. The tissues and organs were weighed, counted in a PerkinElmer 2480 WIZARD2 γ counter, and the percent injected dose (% ID) and % ID/g of each organ or tissue were calculated.

C[C@@H](O)[C@H](NC(=O)[C@@H]1CSSC[C@H](NC(=O)[C@@H](Cc2ccccc2)NC(=O)CNC(=O)[C@H](CO)NC(=O)CNC(=O)[C@H](CCCCNC(=O)c2cccc(NC(=O)N[C@@H]3CN(C4CCCCC4)c4ccccc4N(CC(=O)C(C)(C)C)C3=O)c2)NC(=O)CN2CCN(CC(=O)O)CCN(CC(=O)O)CCN(CC(=O)O)CC2)C(=O)N[C@@H](Cc2ccc(O)cc2)C(=O)N[C@H](Cc2c[nH]c3ccccc23)C(=O)N[C@@H](CCCCN)C(=O)N[C@@H]([C@@H](C)O)C(=O)N1)C(=O)O [Compound 177Lu-I-54, metal not drawn] ({DOTA}-K([3Abz-CO-X1])GSG[dF]CY[dW]KTCT-OH; disulfide 6-11)
tissue uptake at 4 h (% ID/g Adrenal gland): 2.34 %ID/g
tissue uptake at 24 h (% ID/g Adrenal gland): 1.64 %ID/g
tissue uptake at 72 h (% ID/g Adrenal gland): 1.12 %ID/g
tissue uptake at 4 h (% ID/g Blood): 0.81 %ID/g
tissue uptake at 24 h (% ID/g Blood): 0.16 %ID/g
tissue uptake at 72 h (% ID/g Blood): 0.09 %ID/g
tissue uptake at 4 h (% ID/g Fat): 3.5 %ID/g
tissue uptake at 24 h (% ID/g Fat): 3.78 %ID/g
tissue uptake at 72 h (% ID/g Fat): 2.66 %ID/g
tissue uptake at 4 h (% ID/g Femur): 0.83 %ID/g
tissue uptake at 24 h (% ID/g Femur): 0.66 %ID/g
tissue uptake at 72 h (% ID/g Femur): 0.79 %ID/g
tissue uptake at 4 h (% ID/g Heart): 1.29 %ID/g
tissue uptake at 24 h (% ID/g Heart): 0.65 %ID/g
tissue uptake at 72 h (% ID/g Heart): 0.5 %ID/g
tissue uptake at 4 h (% ID/g Intestine): 2.07 %ID/g
tissue uptake at 24 h (% ID/g Intestine): 1.56 %ID/g
tissue uptake at 72 h (% ID/g Intestine): 1.14 %ID/g
tissue uptake at 4 h (% ID/g Kidney): 20.7 %ID/g
tissue uptake at 24 h (% ID/g Kidney): 10.5 %ID/g
tissue uptake at 72 h (% ID/g Kidney): 8.45 %ID/g
tissue uptake at 4 h (% ID/g Liver): 31.6 %ID/g
tissue uptake at 24 h (% ID/g Liver): 9.6 %ID/g
tissue uptake at 72 h (% ID/g Liver): 5.01 %ID/g
tissue uptake at 4 h (% ID/g Lung): 2.65 %ID/g
tissue uptake at 24 h (% ID/g Lung): 2.77 %ID/g
tissue uptake at 72 h (% ID/g Lung): 1.91 %ID/g
tissue uptake at 4 h (% ID/g Muscle): 0.3 %ID/g
tissue uptake at 24 h (% ID/g Muscle): 0.21 %ID/g
tissue uptake at 72 h (% ID/g Muscle): 0.16 %ID/g
tissue uptake at 4 h (% ID/g Pancreas): 3.91 %ID/g
tissue uptake at 24 h (% ID/g Pancreas): 2.65 %ID/g
tissue uptake at 72 h (% ID/g Pancreas): 2.42 %ID/g
tissue uptake at 4 h (% ID/g Spleen): 1.25 %ID/g
tissue uptake at 24 h (% ID/g Spleen): 0.71 %ID/g
tissue uptake at 72 h (% ID/g Spleen): 1.28 %ID/g
tissue uptake at 4 h (% ID/g Stomach): 4.81 %ID/g
tissue uptake at 24 h (% ID/g Stomach): 4.1 %ID/g
tissue uptake at 72 h (% ID/g Stomach): 4.2 %ID/g
tissue uptake at 4 h (% ID/g Tumor): 30 %ID/g
tissue uptake at 24 h (% ID/g Tumor): 25.7 %ID/g
tissue uptake at 72 h (% ID/g Tumor): 19.6 %ID/g

C[C@@H](O)[C@H](NC(=O)[C@@H]1CSSC[C@H](NC(=O)[C@@H](Cc2ccccc2)NC(=O)[C@H](CCCCNC(=O)c2cccc(NC(=O)N[C@@H]3CN(C4CCCCC4)c4ccccc4N(CC(=O)C(C)(C)C)C3=O)c2)NC(=O)CNC(=O)CNC(=O)CN2CCN(CC(=O)O)CCN(CC(=O)O)CCN(CC(=O)O)CC2)C(=O)N[C@@H](Cc2ccc(O)cc2)C(=O)N[C@H](Cc2c[nH]c3ccccc23)C(=O)N[C@@H](CCCCN)C(=O)N[C@@H]([C@@H](C)O)C(=O)N1)C(=O)O [Compound I-49, DOTA-G-G-K(Z360)-f[CYwKTC]T-OH] ({DOTA}-GGK([3Abz-CO-X1])[dF]CY[dW]KTCT-OH; disulfide 5-10)
tissue to tissue ratio at 24 h (T/K Tumor/Kidney ratio): 1.5
tissue to tissue ratio at 24 h (T/L Tumor/Liver ratio): 1.5
tissue to tissue ratio at 24 h (T/P Tumor/Pancreas ratio): 9.8
tissue to tissue ratio at 24 h (T/Sp Tumor/Spleen ratio): 14
tissue to tissue ratio at 24 h (T/St Tumor/Stomach ratio): 3.2
tissue uptake at 24 h (uptake Kidney): 5.93 %ID/g
tissue uptake at 24 h (uptake Liver): 5.92 %ID/g
tissue uptake at 24 h (uptake Pancreas): 0.92 %ID/g
tissue uptake at 24 h (uptake Spleen): 0.62 %ID/g
tissue uptake at 24 h (uptake Stomach): 2.77 %ID/g
tissue uptake at 24 h (uptake Tumor): 8.97 %ID/g

C[C@@H](O)[C@H](NC(=O)[C@@H]1CSSC[C@H](NC(=O)[C@@H](Cc2ccccc2)NC(=O)COCCOCCNC(=O)[C@H](CCCCNC(=O)CCC(C(=O)O)N2CCN(CC(=O)O)CCN(CC(=O)O)CCN(CC(=O)O)CC2)NC(=O)COCCOCCNC(=O)CC[C@H](NC(=O)CC[C@H](NC(=O)c2cccc(NC(=O)N[C@@H]3CN(C4CCCCC4)c4ccccc4N(CC(=O)C(C)(C)C)C3=O)c2)C(=O)O)C(=O)O)C(=O)N[C@@H](Cc2ccc(O)cc2)C(=O)N[C@H](Cc2c[nH]c3ccccc23)C(=O)N[C@@H](CCCCN)C(=O)N[C@@H]([C@@H](C)O)C(=O)N1)C(=O)O (stereo partly shown) [^177Lu-1-13, metal not drawn]
tissue uptake at 4 h (% ID/g Adrenal gland): 3.6 %ID/g
tissue uptake at 24 h (% ID/g Adrenal gland): 0.81 %ID/g
tissue uptake at 72 h (% ID/g Adrenal gland): 0.73 %ID/g
tissue uptake at 4 h (% ID/g Blood): 0.64 %ID/g
tissue uptake at 24 h (% ID/g Blood): 0.09 %ID/g
tissue uptake at 72 h (% ID/g Blood): 0.03 %ID/g
tissue uptake at 4 h (% ID/g Femur): 0.21 %ID/g
tissue uptake at 24 h (% ID/g Femur): 0.27 %ID/g
tissue uptake at 72 h (% ID/g Femur): 0.14 %ID/g
tissue uptake at 4 h (% ID/g Heart): 0.54 %ID/g
tissue uptake at 24 h (% ID/g Heart): 0.19 %ID/g
tissue uptake at 72 h (% ID/g Heart): 0.11 %ID/g
tissue uptake at 4 h (% ID/g Intestine): 0.89 %ID/g
tissue uptake at 24 h (% ID/g Intestine): 0.37 %ID/g
tissue uptake at 72 h (% ID/g Intestine): 0.22 %ID/g
tissue uptake at 4 h (% ID/g Kidney): 58.6 %ID/g
tissue uptake at 24 h (% ID/g Kidney): 46.7 %ID/g
tissue uptake at 72 h (% ID/g Kidney): 22.5 %ID/g
tissue uptake at 4 h (% ID/g Liver): 0.79 %ID/g
tissue uptake at 24 h (% ID/g Liver): 1.21 %ID/g
tissue uptake at 72 h (% ID/g Liver): 0.52 %ID/g
tissue uptake at 4 h (% ID/g Lung): 1.57 %ID/g
tissue uptake at 24 h (% ID/g Lung): 0.43 %ID/g
tissue uptake at 72 h (% ID/g Lung): 0.38 %ID/g
tissue uptake at 4 h (% ID/g Muscle): 0.08 %ID/g
tissue uptake at 24 h (% ID/g Muscle): 0.08 %ID/g
tissue uptake at 72 h (% ID/g Muscle): 0.05 %ID/g
tissue uptake at 4 h (% ID/g Pancreas): 1.59 %ID/g
tissue uptake at 24 h (% ID/g Pancreas): 1.21 %ID/g
tissue uptake at 72 h (% ID/g Pancreas): 0.91 %ID/g
tissue uptake at 4 h (% ID/g Spleen): 0.43 %ID/g
tissue uptake at 24 h (% ID/g Spleen): 0.47 %ID/g
tissue uptake at 72 h (% ID/g Spleen): 0.64 %ID/g
tissue uptake at 4 h (% ID/g Stomach): 2.23 %ID/g
tissue uptake at 24 h (% ID/g Stomach): 2.19 %ID/g
tissue uptake at 72 h (% ID/g Stomach): 1.95 %ID/g
tissue uptake at 4 h (% ID/g Tumor): 14.6 %ID/g
tissue uptake at 24 h (% ID/g Tumor): 14.8 %ID/g
tissue uptake at 72 h (% ID/g Tumor): 6.83 %ID/g

C[C@@H](O)[C@H](NC(=O)[C@@H]1CSSC[C@H](NC(=O)[C@@H](Cc2ccccc2)NC(=O)[C@H](CCCCNC(=O)c2cccc(NC(=O)N[C@@H]3CN(C4CCCCC4)c4ccccc4N(CC(=O)C(C)(C)C)C3=O)c2)NC(=O)CCOCCOCCOCCNC(=O)CN2CCN(CC(=O)O)CCN(CC(=O)O)CCN(CC(=O)O)CC2)C(=O)N[C@@H](Cc2ccc(O)cc2)C(=O)N[C@H](Cc2c[nH]c3ccccc23)C(=O)N[C@@H](CCCCN)C(=O)N[C@@H]([C@@H](C)O)C(=O)N1)C(=O)O [Compound I-48, DOTA-PEG3-K(Z360)-f[CYwKTC]T-OH]
tissue to tissue ratio at 24 h (T/K Tumor/Kidney ratio): 1.8
tissue to tissue ratio at 24 h (T/L Tumor/Liver ratio): 2.7
tissue to tissue ratio at 24 h (T/P Tumor/Pancreas ratio): 14
tissue to tissue ratio at 24 h (T/Sp Tumor/Spleen ratio): 19
tissue to tissue ratio at 24 h (T/St Tumor/Stomach ratio): 4
tissue uptake at 24 h (uptake Kidney): 10.6 %ID/g
tissue uptake at 24 h (uptake Liver): 7.02 %ID/g
tissue uptake at 24 h (uptake Pancreas): 1.35 %ID/g
tissue uptake at 24 h (uptake Spleen): 1.02 %ID/g
tissue uptake at 24 h (uptake Stomach): 4.75 %ID/g
tissue uptake at 24 h (uptake Tumor): 18.9 %ID/g

Reference: patent publication US20260248972A1, “DUAL RECEPTOR TARGETING RADIOLIGANDS AND USES THEREOF RELATED APPLICATIONS” (priority 2022, published 2026)
